These results are taken from patent US20210017277A1 (US Dept. of Health and Human Services, published 2021).

This test has as its target T1, Biotinylated Human Siglec-3/CD33 Protein, Avi Tag (Acro Biosystems) (human, UniProt P20138 18-259, biotinylated (Avi Tag)).
T1 construct: Bought reagent; also called biotinalated Siglec-3; not shown: Avi Tag
Briefly: flow cytometry: CAR-transduced T cells stained with biotinylated human Siglec-3/CD33 protein, then Streptavidin-PE. The protocol: Surface expression of CD33 CAR-transduced T cells was determined by flow cytometry using either protein-L (Themo Fisher) or a Biotinylated Human Siglec-3/CD33 Protein (Acro Biosystems, Newark, Del., USA) followed by incubation with Streptavidin-PE (BioLegend, San Diego, Calif., USA). CD123 CAR expression were detected with protein-L. Expression of CD33, CD123 and other cell surface markers were detected using the following antibodies from eBioscience (Thermo Fisher): CD33, CD45, CD3, CD8a, CD4, CD10.
For CD33 CAR detection with Biotinylated Human Siglec-3/CD33 Protein: CAR detection with: add 2 ul of Biotinylated Human Siglec-3/CD33 Protein, [Avi Tag (Avitag™) Acro Biosystems, Newark, Del., USA], incubate for 20 min, wash once and incubate with 0.5 μl of Streptavidin-PE, incubate for additional 10 min, wash once, subject for FACS analysis.
Background: A flow cytometer gives signals particle by particle.

T1 sequence (P20138 18-259 limits assumed): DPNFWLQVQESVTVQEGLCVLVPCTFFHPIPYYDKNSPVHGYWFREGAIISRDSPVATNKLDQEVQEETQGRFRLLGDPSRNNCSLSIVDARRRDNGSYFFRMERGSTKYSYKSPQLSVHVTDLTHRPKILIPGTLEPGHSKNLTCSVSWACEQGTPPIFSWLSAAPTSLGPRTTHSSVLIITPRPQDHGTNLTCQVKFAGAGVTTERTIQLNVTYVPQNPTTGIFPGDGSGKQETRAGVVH

B1: CD33Hu195-CD28Z CAR (other)
chain: QVQLVQSGAEVKKPGSSVKVSCKASGYTFTDYNMHWVRQAPGQGLEWIGYIYPYNGGTGYNQKFKSKATITADESTNTAYMELSSLRSEDTAVYYCARGRPAMDYWGQGTLVTVSSGGGGSGGGGSGGGGSDIQMTQSPSSLSASVGDRVTITCRASESVDNYGISFMNWFQQKPGKAPKLLIYAASNQGSGVPSRFSGSGSGTDFTLTISSLQPDDFATYYCQQSKEVPWTFGQGTKVEIKSGAAAIEVMYPPPYLDNEKSNGTIIHVKGKHLCPSPLFPGPSKPFWVLVVVGGVLACYSLLVTVAFIIFWVRSKRSRLLHSDYMNMTPRRPGPTRKHYQPYAPPRDFAAYRSRVKFSRSADAPAYQQGQNQLYNELNLGRREEYDVLDKRRGRDPEMGGKPRRKNPQEGLYNELQKDKMAEAYSEIGMKGERRRGKGHDGLYQGLSTATKDTYDALHMQALPPR
notes: CAR on the surface of transduced human T cells; also called CD33.2-28z; CD33.2-CD28z
In the case of B1, the binding result was “binds”.
